In PMC8991601:

Columns and labels:
[1] = tested on: N[C@@H](CC(=O)O)C(=O)Nc1ccc([N+](=O)[O-])cc1; experiment: purified protein; conditions: 10 mM Tris-HCl, pH 7.5, 50 °C
[2] = tested on: N[C@@H](CCC(=O)O)C(=O)Nc1ccc([N+](=O)[O-])cc1; experiment: purified protein; conditions: 10 mM Tris-HCl, pH 7.5, 50 °C

Row | Substance | Km [1] | Km [2]
1 | bDNPEP (recombinant bovine aspartyl aminopeptidase) (Bos taurus) | 389 µM | 314 µM
2 | cDNPEP (recombinant chicken aspartyl aminopeptidase) (Gallus gallus) | 767 µM | 137 µM
